Results reported in IntAct's records for PubMed 22751141.

Biological target: GATA3, P23771-2
Sequence (P23771 other isoform, or with tags, fused parts or gaps): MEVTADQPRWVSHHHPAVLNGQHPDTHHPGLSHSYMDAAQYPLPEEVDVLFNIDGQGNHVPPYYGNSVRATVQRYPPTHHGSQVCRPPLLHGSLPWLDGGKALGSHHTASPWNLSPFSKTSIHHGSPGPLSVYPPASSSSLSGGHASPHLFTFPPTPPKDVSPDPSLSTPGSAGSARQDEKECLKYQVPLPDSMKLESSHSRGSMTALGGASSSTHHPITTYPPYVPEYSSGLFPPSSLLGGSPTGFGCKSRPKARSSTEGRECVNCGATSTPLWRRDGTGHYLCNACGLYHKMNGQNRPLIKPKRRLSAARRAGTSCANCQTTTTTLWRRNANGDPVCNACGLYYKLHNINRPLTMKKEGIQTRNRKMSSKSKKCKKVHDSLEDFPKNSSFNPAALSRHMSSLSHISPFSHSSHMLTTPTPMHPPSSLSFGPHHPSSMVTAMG

effect of a mutation on the interaction	Substance
decreasing interaction	Transcription factor SOX-4 (Mus musculus), Q06831 F66A;M67A
decreasing interaction	Transcription factor SOX-4 (Mus musculus), Q06831 R61A;P62A
